Test results reported in publication PMC8160739, “Mycobacterium tuberculosis Binds Human Serum Amyloid A, and the Interaction Modulates the Colonization of Human Macrophages and the Transcriptional Response of the Pathogen” (Cells, 2021).

Columns and labels:
Settings in all cases: both partners purified
[1] = target: T1, recombinant Mycobacterium tuberculosis rEspB (Mycobacterium tuberculosis H37Rv, UniProt P9WJD9 1-460); test: far-Western, overlay or dot blot; recombinant Mtb proteins separated by reducing SDS-PAGE (12% gel), transferred to nitrocellulose, incubated 2 h at room temperature with biotin-labeled SAA1 at 10 µg/mL in PBS/0.05% Tween 20/0.1% BSA; streptavidin-peroxidase detection
T1 construct: also called pHis-espB product

[2] = target: T2, recombinant Mycobacterium tuberculosis rTB18.6 (Mycobacterium tuberculosis H37Rv, UniProt P9WFN1 1-176); test: as above
T2 construct: also called pHis-tb18.6 product
T2 sequence: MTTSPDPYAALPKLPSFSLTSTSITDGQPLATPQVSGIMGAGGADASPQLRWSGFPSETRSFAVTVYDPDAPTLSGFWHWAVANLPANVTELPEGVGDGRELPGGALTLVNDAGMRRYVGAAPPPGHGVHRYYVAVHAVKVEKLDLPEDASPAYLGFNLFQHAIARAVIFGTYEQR

[3] = target: T3, recombinant Mycobacterium tuberculosis rThiC (Mycobacterium tuberculosis H37Rv, UniProt P9WG79 1-547); test: as above
T3 construct: also called pHis-thiC product

[4] = target: T4, recombinant Mycobacterium tuberculosis rAtpA (Mycobacterium tuberculosis H37Rv, UniProt P9WPU7 1-549); test: as above
T4 construct: also called pHis-atpA product

[5] = target: T5, recombinant Mycobacterium tuberculosis rABC (Mycobacterium tuberculosis H37Rv, UniProt P9WQK3 1-558); test: SPR; Biacore X, CM5 chip; human SAA1 amine-coupled (7850 RU), BSA chip as control and blank; native recombinant Mtb proteins as analytes; 22-25 °C; HBS-EP pH 7.4 (0.01 M HEPES, 0.15 M NaCl, 3 mM EDTA, 0.005% P20); flow 5 or 20 µL/min; global fit, Langmuir 1:1 with drifting baseline
T5 construct: also called rABC transporter; pHis-abc product
T5 sequence: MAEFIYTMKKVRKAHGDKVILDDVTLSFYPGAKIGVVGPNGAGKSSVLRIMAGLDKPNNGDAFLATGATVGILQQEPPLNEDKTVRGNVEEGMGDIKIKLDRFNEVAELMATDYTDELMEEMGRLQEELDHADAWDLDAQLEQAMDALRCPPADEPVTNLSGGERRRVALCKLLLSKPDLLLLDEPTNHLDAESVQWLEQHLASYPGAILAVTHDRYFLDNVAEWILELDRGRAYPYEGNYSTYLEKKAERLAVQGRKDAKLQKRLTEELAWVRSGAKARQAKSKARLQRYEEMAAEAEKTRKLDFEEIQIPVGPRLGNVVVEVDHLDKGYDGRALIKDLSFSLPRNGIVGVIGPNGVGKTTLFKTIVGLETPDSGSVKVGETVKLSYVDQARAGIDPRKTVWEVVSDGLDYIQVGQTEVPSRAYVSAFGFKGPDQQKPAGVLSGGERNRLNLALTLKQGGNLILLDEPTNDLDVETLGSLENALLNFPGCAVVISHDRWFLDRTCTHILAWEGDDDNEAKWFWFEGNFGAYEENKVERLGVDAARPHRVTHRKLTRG

[6] = target: T1, recombinant Mycobacterium tuberculosis …; test: as above
[7] = target: T2, recombinant Mycobacterium tuberculosis …; test: as above
[8] = target: T3, recombinant Mycobacterium tuberculosis …; test: as above
[9] = target: T4, recombinant Mycobacterium tuberculosis …; test: as above

T3 sequence (P9WG79 whole entry): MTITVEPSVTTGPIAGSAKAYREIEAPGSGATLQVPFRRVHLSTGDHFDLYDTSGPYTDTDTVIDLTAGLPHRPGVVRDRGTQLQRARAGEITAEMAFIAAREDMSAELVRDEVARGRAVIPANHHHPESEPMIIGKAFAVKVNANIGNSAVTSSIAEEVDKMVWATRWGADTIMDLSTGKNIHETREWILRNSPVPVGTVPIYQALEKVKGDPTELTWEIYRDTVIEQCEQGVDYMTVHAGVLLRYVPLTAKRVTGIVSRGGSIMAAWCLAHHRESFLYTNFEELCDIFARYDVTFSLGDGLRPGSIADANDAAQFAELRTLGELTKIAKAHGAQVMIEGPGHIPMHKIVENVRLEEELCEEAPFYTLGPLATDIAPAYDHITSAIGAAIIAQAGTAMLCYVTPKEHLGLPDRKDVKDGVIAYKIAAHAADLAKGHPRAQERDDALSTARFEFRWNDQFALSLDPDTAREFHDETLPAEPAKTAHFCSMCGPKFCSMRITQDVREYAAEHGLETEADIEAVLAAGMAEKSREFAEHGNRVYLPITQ
T1 sequence (P9WJD9 whole entry): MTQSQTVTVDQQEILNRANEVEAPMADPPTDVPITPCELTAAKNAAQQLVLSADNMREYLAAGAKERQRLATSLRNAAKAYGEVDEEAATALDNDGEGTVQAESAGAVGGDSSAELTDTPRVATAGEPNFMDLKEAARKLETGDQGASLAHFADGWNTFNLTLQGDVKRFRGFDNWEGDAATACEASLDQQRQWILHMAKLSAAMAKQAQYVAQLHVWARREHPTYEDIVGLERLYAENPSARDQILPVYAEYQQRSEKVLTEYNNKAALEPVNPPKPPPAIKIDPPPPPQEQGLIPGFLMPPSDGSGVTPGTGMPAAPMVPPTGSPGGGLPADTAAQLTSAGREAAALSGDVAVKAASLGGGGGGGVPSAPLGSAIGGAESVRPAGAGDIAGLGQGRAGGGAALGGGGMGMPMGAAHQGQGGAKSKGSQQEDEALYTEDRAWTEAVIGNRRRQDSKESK
T4 sequence (P9WPU7 whole entry): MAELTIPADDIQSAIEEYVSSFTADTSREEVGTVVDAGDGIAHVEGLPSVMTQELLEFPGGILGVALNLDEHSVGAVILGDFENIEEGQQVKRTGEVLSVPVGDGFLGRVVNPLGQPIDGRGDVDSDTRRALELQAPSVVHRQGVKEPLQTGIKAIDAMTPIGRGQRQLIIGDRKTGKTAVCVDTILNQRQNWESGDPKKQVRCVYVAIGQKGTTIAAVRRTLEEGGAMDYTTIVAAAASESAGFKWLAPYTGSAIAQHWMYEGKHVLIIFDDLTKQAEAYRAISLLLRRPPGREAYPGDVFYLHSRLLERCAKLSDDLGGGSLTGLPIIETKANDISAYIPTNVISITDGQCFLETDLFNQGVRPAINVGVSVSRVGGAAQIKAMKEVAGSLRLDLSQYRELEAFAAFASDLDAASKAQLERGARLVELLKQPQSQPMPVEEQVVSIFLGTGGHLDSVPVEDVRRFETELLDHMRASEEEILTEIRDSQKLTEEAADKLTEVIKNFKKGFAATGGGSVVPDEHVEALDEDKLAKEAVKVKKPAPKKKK

B1: biotin-labeled recombinant human SAA1 (natural protein, UniProt P0DJI8 19-122, looked up)
chain: RSFFSFLGEAFDGARDMWRAYSDMREANYIGSDKYFHARGNYDAAKRGPGGAWAAEVITDARENIQRFFGHGAEDSLADQAANEWGRSGKDPNHFRPAGLPEKY
modifications: biotin (Sulfo-NHS-biotin labeling; sites not stated)
notes: serum amyloid A1 (SAA1), human, recombinant, bought from Sigma Aldrich; Same bought protein as m1, biotinylated; detected with streptavidin-HRP; also called biotinylated SAA1; biotin-labeled human SAA1; source: bought: Sigma Aldrich (recombinant), labeled with EZ-Link Micro Sulfo-NHS-Biotinylation Kit
B1: binds [1]; binds [2]; binds [3]. B1: binds [4].

B2: recombinant human serum amyloid A (SAA1) (natural protein, UniProt P0DJI8 19-122, looked up)
chain: RSFFSFLGEAFDGARDMWRAYSDMREANYIGSDKYFHARGNYDAAKRGPGGAWAAEVITDARENIQRFFGHGAEDSLADQAANEWGRSGKDPNHFRPAGLPEKY
notes: serum amyloid A1 (SAA1), human, recombinant, bought from Sigma Aldrich; also called human SAA1; human acute phase protein; source: bought: Sigma Aldrich (recombinant)
Work on B2 yielded a Kd [5] of 11.3 µM, a Kd [6] of 5.06 µM and a Kd [7] of 8.5 µM. The Kd [8] was 7.53 µM and the Kd [9] was 0.194 µM.
